Measured values: patent US20240287184A1 (GUANGDONG FAPON BIOPHARMA, published 2024)

Experiments:
[1] = biological target: T1, recombinant human PD-1 expressed on the surface of CHO cells (CHO-hPD1) (human, UniProt Q15116 25-288); test: flow cytometry on CHO-hPD1 cells
T1 construct: whole, on cells; also called CHO-PD1; hPD1-transfected CHO cells
Description: (§1) A CHO (Chinese Hamster Ovary Cells) cell line, CHO-hPD1, capable of expressing a recombinant human PD-1 on the cell surface, and a CHO cell line, CHO-cynoPD1, capable of expressing a monkey PD1 on the cell surface were prepared by recombinant technology. […] The specific method was: In order to evaluate the binding of the humanized antibody to the CHO-hPD1, 2×10⁵ CHO-hPD1 cells and the humanized antibody diluted in concentration gradient (with an initial concentration of 30 μg/mL, and diluted in 3-fold gradient) were added into a 96-well plate, and incubated at 4° C. for 30 minutes. The cells were washed once with a buffer (PBS containing 3% BSA) and then added with a PE-labeled anti-human IgG (Fc) Ab (Biolegend) fluorescent secondary antibody, incubated at 4° C. for 30 minutes, then washed once with the buffer and subsequently resuspended in PBS. Thereafter, the cell suspension was subjected to flow cytometric analysis by CytoFlex (Beckman flow cytometer), and the quantity of the antibody bound to the cells was measured according to the mean fluorescence intensity (MFI) of the staining. The same method was used for evaluating the binding of the humanized antibody to the CHO-cyno cells.

[2] = biological target: T1, recombinant human PD-1 expressed on the …; test: flow cytometry, blocking of PD-L2-mFc (0.2 µg/mL) binding to CHO-hPD1
Description: (§2) The ability of the anti-PD-1 humanized antibody to block the binding of the ligand to a transfected CHO cells which could stably express PD-1 on the surface was analyzed by a flow cytometer.
(§3) The CHO-PD1 cells were resuspended with a buffer (PBS containing 3% BSA), and adjusted to the density of 2×10⁶ cells/mL. The cell suspension was added into a 96-well U-shaped plate at 100 μL/well and centrifuged at 300 g for 5 minutes, and then the supernatant was discarded.
(§4) The cells were centrifuged at 300 g for 5 minutes, washed once with the buffer, added with a PE-labeled goat anti-mouse IgG fluorescent antibody (Biolegend), and incubated at 4° C. for 30 minutes. The cells were centrifuged and washed once, then resuspended in PBS, and subsequently analyzed by a CytoFlex flow cytometer to detect the quantity of the ligand protein bound to the cells, and calculate the IC₅₀ value of the PD-1 antibody in blocking the binding.

[3] = biological target: T2, PD1 naturally expressed by activated human lymphocytes (PHA-activated PBMC) (human, UniProt Q15116 25-288); test: cell-based or functional assay
T2 sequence (Q15116 25-288): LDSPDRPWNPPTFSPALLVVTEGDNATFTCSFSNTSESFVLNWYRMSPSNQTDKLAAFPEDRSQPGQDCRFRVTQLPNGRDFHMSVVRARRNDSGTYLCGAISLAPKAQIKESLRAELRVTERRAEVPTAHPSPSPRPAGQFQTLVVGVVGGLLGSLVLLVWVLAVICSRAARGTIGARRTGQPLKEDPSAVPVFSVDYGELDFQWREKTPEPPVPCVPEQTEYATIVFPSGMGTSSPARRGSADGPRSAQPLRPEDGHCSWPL

human PD-1-hFc = biological target: T3, human PD-1-hFc (human, UniProt Q15116 25-167); test: ELISA, antigen coated at 1 µg/mL, antibody 10 µg/mL
T3 construct: Commercial protein; also called PD-1 (ACRO); not shown: human Fc (hFc)
T3 sequence (Q15116 25-167 limits assumed): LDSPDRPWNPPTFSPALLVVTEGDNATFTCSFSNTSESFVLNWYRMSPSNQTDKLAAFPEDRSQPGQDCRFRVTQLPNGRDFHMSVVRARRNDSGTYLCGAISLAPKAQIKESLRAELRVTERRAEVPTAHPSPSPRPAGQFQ
Text: (§5) A horse radish peroxidase (HRP)-coupled anti-human IgG (F) was used as the secondary antibody. After developed with TMB and terminated, it was read for an OD450 value with a microplate reader.

human CD28-hFc [4] = biological target: T4, human CD28-hFc (human, UniProt P10747 19-152); test: as above
T4 construct: Commercial protein; also called CD28 (ACRO); not shown: human Fc (hFc)
Text: as §5

human ICOS-hFc [5] = biological target: T5, human ICOS-hFc (human, UniProt Q9Y6W8 21-140); test: as above
T5 construct: Commercial protein; also called ICOS (ACRO); not shown: human Fc (hFc)
T5 sequence (looked up): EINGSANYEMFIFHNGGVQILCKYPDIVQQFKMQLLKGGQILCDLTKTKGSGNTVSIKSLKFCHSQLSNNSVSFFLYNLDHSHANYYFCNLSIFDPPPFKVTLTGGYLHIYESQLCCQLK
Text: as §5

human CTLA4-hFc [6] = biological target: T6, human CTLA4-hFc (human, UniProt P16410 37-162, limits assumed); test: as above
T6 construct: Commercial protein; also called CTLA-4 (ACRO); not shown: human Fc (hFc)
T6 sequence (P16410 37-162 limits assumed): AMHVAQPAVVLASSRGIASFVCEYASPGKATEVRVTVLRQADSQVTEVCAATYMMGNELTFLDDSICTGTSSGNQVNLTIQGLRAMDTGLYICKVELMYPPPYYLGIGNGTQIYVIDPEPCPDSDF
Text: as §5

[7] = biological target: T2, PD1 naturally expressed by activated …; test: flow cytometry on PHA-activated human PBMC
Description: After being obtained from fresh human peripheral blood by gradient centrifugation of lymphatic separation medium, the PBMCs were adjusted to the density of 1×10⁶ cells/mL and inoculated into T75, and meanwhile added with PHA-L (Sigma) at a final concentration of 1 μg/mL to stimulate the proliferation of lymphocytes. After being allowed to stand in an incubator at 37° C. and 5% CO₂ for 3 days, the cell suspension was taken out and centrifuged. The supernatant was discarded, and the precipitate was resuspended in a buffer (PBS containing 3% BSA) and added into a 96-well U-shaped plate at 2E5/well, then added with different concentration gradients of the humanized antibody, incubated at 4° C. for 30 minutes, and then centrifuged at 300 g for 5 minutes. The cells were washed once with the buffer, and added with a PE-labeled goat anti-human IgG fluorescent antibody (Biolegend), and incubated at 4° C. for 30 minutes. Then cells were centrifuged and washed once, resuspended in PBS, and subsequently analyzed by a CytoFlex flow cytometer to detect the quantity of the antibody bound to the PBMC.

human CD28-hFc [8] = biological target: T4, human CD28-hFc; test: ELISA, antigen coated at 1 µg/mL
Text: as §5

human ICOS-hFc [9] = biological target: T5, human ICOS-hFc; test: ELISA, antigen coated at 1 µg/mL
Text: as §5

human CTLA4-hFc [10] = biological target: T6, human CTLA4-hFc; test: ELISA, antigen coated at 1 µg/mL
Text: as §5

[11] = biological target: T7, monkey PD1 expressed on the surface of CHO cells (CHO-cynoPD1) (monkey); test: flow cytometry on CHO-cynoPD1 cells
T7 construct: whole, on cells
Description: as §1

[12] = biological target: T8, PD-1-his (ACRO) recombinant protein (UniProt Q15116 25-167); test: BLI (ForteBio Octet), PD-1-his loaded on sensor, antibody in solution
T8 construct: Commercial protein; not shown: his tag
T8 sequence (Q15116 25-167 limits assumed): as the sequence (Q15116 25-167 limits assumed) above
Description: Finally, analysis was conducted by utilizing a kinetic model, and data processing was conducted.

[13] = biological target: T1, recombinant human PD-1 expressed on the …; test: flow cytometry, blocking of PD-L1-mFc (0.2 µg/mL) binding to CHO-hPD1
Description: as §2, §3, §4

T1 sequence (Q15116 25-288): as the sequence (Q15116 25-288) above

Binder	EC50 [1]	IC50 [2]	IFNγ EC50 (mixed lymphocyte reaction) [3]	IL2 EC50 (mixed lymphocyte reaction) [3]	OD450 (human PD-1-hFc)	OD450 (human CD28-hFc [4])	OD450 (human ICOS-hFc [5])	OD450 (human CTLA4-hFc [6])	EC50 [7]	binding result (human CD28-hFc [8])	binding result (human ICOS-hFc [9])	binding result (human CTLA4-hFc [10])	EC50 [11]	Kd [12]	koff [12]	kon [12]	IC50 [13]
anti-PD-1 humanized antibody c43 (antibody, V domains shown) VH: QVQLVQSGAEVKKPGASVKVSCKASGYTFTTYYMYWVRQAPGQGLEWIGGINPSNGGTNYAEKFKGRVTLTVDTSTSTAYMELSSLRSEDTAVYYCTRRDSNYDGGFDYWGQGTTVTVSS VL: DIQMTQSPSSLSASVGDRVTITCRASKSVSTSGYSYMHWYQQKPGKAPKLLIYLAYHLESGVPSRFSGSGSGTDFTLTISSLQPEDFATYYCQHSWELPITFGQGTKLEIKR	1.58 nM	7.95 nM	2.73 nM	2.79 nM	1.23 OD450	0.189 OD450	0.131 OD450	0.255 OD450	0.281 nM	no binding (tested: 10 µg/mL)	no binding (tested: 10 µg/mL)	no binding (tested: 10 µg/mL)	0.894 nM	< 1 pM	< 1e-07 s⁻¹	984000 M⁻¹ s⁻¹	3.14 nM
anti-PD-1 humanized antibody c22 (antibody, V domains shown) VH: QVQLVQSGAEVKKPGASVKVSCKASGYTFTTYYMYWVRQAPGQGLEWMGGINPSNGGTNFNEKFKSRVTMTVDKSTSTAYMELSSLRSEDTAVYYCTRRDSNYDGGFDYWGQGTTVTVSS VL: DIQLTQSPSSLSASVGDRATITCRASKSVSTSGYSYMHWYQQKPGKAPKLLIYLAYHLESGVPSRFSGSGSGTDFTLTISSVQPEDFATYYCQHSWELPITFGQGTKLEIKR	1.68 nM	6.88 nM	0.727 nM	13.3 nM	1.33 OD450	0.18 OD450	0.117 OD450	0.209 OD450	0.141 nM	no binding (tested: 10 µg/mL)	no binding (tested: 10 µg/mL)	no binding (tested: 10 µg/mL)	0.63 nM	< 1 pM	< 1e-07 s⁻¹	985000 M⁻¹ s⁻¹	3.1 nM
anti-PD-1 humanized antibody c53 (antibody, V domains shown) VH: QVQLVQSGAEVKKPGASVKVSCKASGYTFTTYYMYWVRQAPGQGLEWMGGINPSNGGTNYAQKFQGRATMTVDTSTSTAYMELSSLRSEDTAVYYCTRRDSNYDGGFDYWGQGTTVTVSS VL: DIQMTQSPSSLSASVGDRVTITCRASKSVSTSGYSYMHWYQQKPGKAPKLLIYLAYHLESGVPSRFSGSGSGTDFTLTISSLQPEDFATYYCQHSWELPITFGQGTKLEIKR	1.71 nM	7.05 nM	6.65 nM	1.88 nM	1.48 OD450	0.176 OD450	0.133 OD450	0.239 OD450	0.213 nM	no binding (tested: 10 µg/mL)	no binding (tested: 10 µg/mL)	no binding (tested: 10 µg/mL)	0.743 nM	< 1 pM	< 1e-07 s⁻¹	979000 M⁻¹ s⁻¹	3.02 nM
